Measurements as given in patent publication US6403764.
Numbering of substitutions follows the chain as printed. Names may count otherwise.

T1: human IGFBP-1 (human, UniProt P08833 26-259)
T1 construct: mature; Secreted recombinant protein; also called IGFBP-I
T1 sequence (looked up): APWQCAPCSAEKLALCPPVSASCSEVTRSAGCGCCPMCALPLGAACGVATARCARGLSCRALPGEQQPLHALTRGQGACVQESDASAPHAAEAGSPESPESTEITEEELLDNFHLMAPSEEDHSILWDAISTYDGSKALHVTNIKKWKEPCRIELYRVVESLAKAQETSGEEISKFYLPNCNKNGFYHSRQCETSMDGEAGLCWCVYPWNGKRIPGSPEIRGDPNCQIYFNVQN

T2: human IGFBP-1 (human), P08833
T2 chain: T1 sequence (looked up)

B1: IGF-I F49A displayed on phage (ligand)
chain: SPETLCGAELVDALQFVCGDRGFYFNKPTGYGSSSRRAPQTGIVDECCARSCDLRRLEMYCAPLKPAKSV
notes: On phage; G1S-A70V template; also called IGF-F49A phage; not shown: Display partner: M13 gene III protein fragment (residues 249-406, mature count) and the junction to it
B2: IGF-I R55A displayed on phage (ligand)
chain: B1 chain with A49F, R55A
notes: On phage; G1S-A70V template; not shown: Display partner: M13 gene III protein fragment (residues 249-406, mature count) and the junction to it
B3: IGF-I S69A displayed on phage (ligand, not shown: large carriers; small tags and cut ends)
chain: B1 chain with A49F, S69A
notes: On phage; G1S-A70V template
B4: IGF-I L64A displayed on phage (ligand)
chain: B1 chain with A49F, L64A
notes: On phage; G1S-A70V template; not shown: M13 gene III protein fragment (residues 249-406), the phage display carrier, and its junction to IGF-I
B5: IGF-I L54A displayed on phage (ligand)
chain: B1 chain with A49F, L54A
notes: as for B2
B6: IGF-I Q40A displayed on phage (ligand, not shown: large carriers)
chain: B1 chain with Q40A, A49F
notes: On phage; G1S-A70V template
B7: IGF-I L57A displayed on phage (ligand)
chain: B1 chain with A49F, L57A
notes: as for B4
B8: IGF-I P66A displayed on phage (ligand)
chain: B1 chain with A49F, P66A
notes: as for B4
B9: IGF-I S51A displayed on phage (ligand)
chain: B1 chain with A49F, S51A
notes: as for B2
B10: IGF-I S35A displayed on phage (ligand, not shown: large carriers)
chain: B1 chain with S35A, A49F
notes: On phage; G1S-A70V template
B11: IGF-I R37A displayed on phage (ligand, not shown: large carriers)
chain: B1 chain with R37A, A49F
notes: On phage; G1S-A70V template
B12: IGF-I V17A displayed on phage (ligand)
chain: B1 chain with V17A, A49F
notes: On phage; G1S-A70V template; not shown: M13 gene III fragment (residues 249-406), the display carrier, and its junction
B13: IGF-I Y60A displayed on phage (ligand)
chain: B1 chain with A49F, Y60A
notes: as for B4
B14: IGF-I Y24A displayed on phage (ligand)
chain: B1 chain with Y24A, A49F
notes: On phage; G1S-A70V template; not shown: Display carrier: M13 gene III protein fragment (residues 249-406) and the junction to it
B15: IGF-I M59A displayed on phage (ligand)
chain: B1 chain with A49F, M59A
notes: as for B4
B16: IGF-I T4A displayed on phage (ligand, not shown: large carriers; small tags and cut ends)
chain: B1 chain with T4A, A49F
notes: On phage; G1S-A70V template
B17: IGF-I R21A displayed on phage (ligand)
chain: B1 chain with R21A, A49F
notes: as for B14
B18: IGF-I L14A displayed on phage (ligand)
chain: B1 chain with L14A, A49F
notes: as for B12
B19: IGF-I N26A displayed on phage (ligand)
chain: B1 chain with N26A, A49F
notes: as for B14
B20: IGF-I R56A displayed on phage (ligand)
chain: B1 chain with A49F, R56A
notes: as for B2
B21: IGF-I Q15A displayed on phage (ligand)
chain: B1 chain with Q15A, A49F
notes: as for B12

Tests used:
human IGFBP-1 [1] = target: T1, human IGFBP-1; experiment: competitive phage ELISA; IC50mut/IC50 G1S-A70V
[2] = target: T3, recombinant human IGFBP-3 (human, UniProt P17936 28-291); experiment: competitive phage ELISA; IC50mut/IC50 G1S-A70V
T3 construct: mature; Secreted recombinant protein
T3 sequence (P17936 28-291): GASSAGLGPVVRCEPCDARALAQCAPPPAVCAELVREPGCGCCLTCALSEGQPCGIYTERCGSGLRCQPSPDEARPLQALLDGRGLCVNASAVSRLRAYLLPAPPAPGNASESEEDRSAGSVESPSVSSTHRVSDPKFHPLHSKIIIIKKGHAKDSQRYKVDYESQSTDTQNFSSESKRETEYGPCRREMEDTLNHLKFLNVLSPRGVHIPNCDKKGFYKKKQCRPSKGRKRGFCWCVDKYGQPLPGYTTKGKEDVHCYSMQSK

human IGFBP-1 [3] = target: T1, human IGFBP-1; experiment: competitive phage ELISA
Description: (§1) Phage particles were harvested and resuspended in PBS buffer as described in Lowman, H. B., "Phage Display of Peptide Libraries on Protein Scaffolds," in Cabilly, S. (ed.), *Combinatorial Peptide Library Protocols* (Humana Press Inc.: Totowa, N.J., 1998), pp. 249–264. Then phage concentrations were normalized to yield a maximal ELISA signal of 0.2–0.4 for each mutant (Lowman, in Cabilly, S. (ed.), supra). Threefold serial dilutions of soluble competitor were prepared on non-absorbent microtiter plates (Nunc, F, 96 wells) with binding buffer (0.5% TWEEN™ 20/PBS) containing phage at the previously-determined concentrations. The dilution range of competitor protein extended over six orders of magnitude, starting at 5 µM for IGFBP-1 and 500 nM for IGFBP-3. After blocking, the plates containing immobilized target were washed with 0.05% TWEEN™/PBS buffer and subsequently incubated with 80 µl/well of the premixed phage-competitor solutions for 1 hour at room temperature. […] Numbers in Table I represent mean±standard deviation of individually assessed $IC50$ values.
(§2) At least two different clones of every mutant were tested.

human IGFBP-1 [4] = target: T1, human IGFBP-1; experiment: phage ELISA value repeated from Table I; IC50mut/IC50 G1S-A70V
[5] = target: T3, recombinant human IGFBP-3; experiment: as above
[6] = target: T2, human IGFBP-1 (human), P08833; experiment: competitive phage ELISA; IC50mut/IC50 G1S-A70V; conditions: remark: other sources report otherwise
[7] = target: T2, human IGFBP-1 (human), P08833; experiment: phage ELISA value repeated from Table I; IC50mut/IC50 G1S-A70V; conditions: remark: other sources report otherwise
[8] = target: T3, recombinant human IGFBP-3; experiment: competitive phage ELISA, IGFBP-3-coated wells, soluble IGFBP-3 competitor (FIG. 3B)
Description: Phage particles were harvested and resuspended in PBS buffer as described in Lowman, H. B., "Phage Display of Peptide Libraries on Protein Scaffolds," in Cabilly, S. (ed.), *Combinatorial Peptide Library Protocols* (Humana Press Inc.: Totowa, N.J., 1998), pp. 249–264. Then phage concentrations were normalized to yield a maximal ELISA signal of 0.2–0.4 for each mutant (Lowman, in Cabilly, S. (ed.), supra). Threefold serial dilutions of soluble competitor were prepared on non-absorbent microtiter plates (Nunc, F, 96 wells) with binding buffer (0.5% TWEEN™ 20/PBS) containing phage at the previously-determined concentrations. The dilution range of competitor protein extended over six orders of magnitude, starting at 5 µM for IGFBP-1 and 500 nM for IGFBP-3.

[9] = target: T3, recombinant human IGFBP-3; experiment: competitive phage ELISA
Description: as §1, §2

| Molecule | relative IC50 (human IGFBP-1 [1]) | relative IC50 [2] | IC50 (human IGFBP-1 [3]) | IC50 [9] | further results |
| --- | --- | --- | --- | --- | --- |
| IGF-I G30A displayed on phage (from UniProt P69168 267-424) (ligand) | 0.9 | 0.8 | – | – | – |
| IGF-I G32A displayed on phage (from UniProt P69168 267-424) (ligand) | 1.3 | 1 | – | – | – |
| IGF-I Y31A displayed on phage (from UniProt P69168 267-424) (ligand) | 0.8 | 1 | – | – | – |
| IGF-I P28A displayed on phage (from UniProt P69168 267-424) (ligand) | 1.1 | 1.9 | – | – | – |
| IGF-I G7A displayed on phage (from UniProt P69168 267-424) (ligand) | > 100 | 6.1 | – | – | – |
| IGF-I T29A displayed on phage (from UniProt P69168 267-424) (ligand) | 0.9 | 1.6 | – | – | – |
| IGF-I S34A displayed on phage (from UniProt P69168 267-424) (ligand) | 1.2 | 2.2 | – | – | – |
| Ala(1-3)-IGF-I displayed on phage (from UniProt P69168 267-424) (ligand) | 11 | 1.5 | 90.4 nM | – | – |
| IGF-I S33A displayed on phage (from UniProt P69168 267-424) (ligand) | 1.1 | 1.3 | – | – | – |
| IGF-I G1S-A70V displayed on phage (from UniProt P69168 267-424) (ligand) | 1 | 1 | – | – | relative IC50 (human IGFBP-1 [4]): 1; relative IC50 [5]: 1 |
| B1 | – | – | – | – | relative IC50 [6]: > 100; relative IC50 [7]: > 100; ratio of IC50 against G1S-A70V phage [8]: < 4 fold |
| B2 | – | – | 9 nM | 0.66 nM | – |
| B3 | – | – | 12.8 nM | 0.71 nM | – |
| B4 | – | – | 12.1 nM | 0.93 nM | – |
| B5 | – | – | 23.1 nM | 1.83 nM | – |
| B6 | – | – | 10.2 nM | 0.56 nM | – |

| Molecule | relative IC50 (human IGFBP-1 [1]) | relative IC50 [2] | IC50 (human IGFBP-1 [3]) | IC50 [9] | further results |
| --- | --- | --- | --- | --- | --- |
| B7 | – | – | 21.8 nM | 1.78 nM | – |
| B8 | – | – | 9.4 nM | 0.57 nM | – |
| B9 | – | – | 13.4 nM | 0.65 nM | – |
| B10 | – | – | 11.7 nM | 0.47 nM | – |
| B11 | – | – | 12.3 nM | 0.75 nM | – |
| B12 | – | – | 42.9 nM | 3.67 nM | – |
| B13 | – | – | 6.6 nM | 0.52 nM | – |
| B14 | – | – | 13.3 nM | 2.53 nM | – |
| B15 | – | – | 13.1 nM | 0.74 nM | – |
| B16 | – | – | 19.4 nM | 0.8 nM | – |
| B17 | – | – | 7.1 nM | 0.58 nM | – |
| B18 | – | – | 36.7 nM | 0.9 nM | – |
| B19 | – | – | 9.1 nM | 0.9 nM | – |
| B20 | – | – | 13.1 nM | 1 nM | – |
| B21 | – | – | 13.9 nM | 1.26 nM | – |
